{"source": "paper PMC11882435", "about": "“Thermodynamic modeling of RsmA - mRNA interactions capture novel direct binding across the Pseudomonas aeruginosa transcriptome”", "binders": {"B1": {"name": "rsaL BS1 mutant (ssRNA)", "RNA": "GGGAUAAUAAACGUCCGAAAAGAUCAGAGCAAUGGCUUCACACGAGAGAACACAGCCCCAAAACAUGGCCUUCCGGGCAAAGGCCACCCGCACCGCCCGCACUGAAAGCCAGGAAACUUUCUGGAGCCGCU"}, "B2": {"name": "rsaL BS2 mutant (ssRNA)", "RNA": "B1 RNA with C100A, A101C, C102G, U103G, G112U, G113A, A114C"}, "B3": {"name": "mvaT BS1 mutant (ssRNA)", "RNA": "GGGAUAAUACUUACAUGCCCGCCACCGCCACUCAGCACAGACAAGGUACCUGACAUGUCCCUGAUCAACGAAUAUCGCGCCCACACAGAAGCCAUCAAGGAACUUCAGGAGCGCCUGAAGUCCCUGGAACAAGACGACAAACUGAAAAAAGAAC"}, "B4": {"name": "mvaT BS3 mutant (ssRNA)", "RNA": "B3 RNA with C82A, A83C, C84G, A85G, C86A, G126C, G127U, A128G"}, "B5": {"name": "mvaT BS2 mutant (ssRNA)", "RNA": "B3 RNA with C82A, A83C, C84G, A85G, C86A, A97C, G99A, G100U, A101U"}}, "note": "Changes are numbered by the printed parent chain."}
{"molecular_target": "RsmA (Pseudomonas aeruginosa, UniProt O69078 1-61)", "sequence (O69078 whole entry)": "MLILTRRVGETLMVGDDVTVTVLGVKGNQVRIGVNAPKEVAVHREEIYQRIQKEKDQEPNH", "assay": "filter binding; affinity unchanged vs WT; Filter binding: 10 mM Tris-HCl pH 7.5, 100 mM KCl, 10 mM MgCl2, 10 mM DTT, 10 ug/mL heparin, RNase inhibitor, 0.5 nM RNA, 37 C 30 min; Hill coefficient 2", "conditions": "protein: recombinant; expressed in E. coli BL21; chain copies: 2; label: 5'-32P"}
{"binder": "B1", "binding result": "binds"}
{"binder": "B2", "binding result": "binds"}
{"binder": "B3", "binding result": "binds"}
{"binder": "B4", "binding result": "binds"}
{"binder": "B5", "binding result": "binds"}
